This is an account of results in US20110224143A1 (ROCKERFELLER UNIVERSITY, published 2011).

The experiment concerns the target T1, sNUCB1 (N-terminally truncated human NUCB1, deletion of residues 1-31) (Homo sapiens, UniProt Q02818 32-461).
T1 construct: Expressed in E. coli; also called Calnuc; Ca2+ free NUCB1
T1 sequence: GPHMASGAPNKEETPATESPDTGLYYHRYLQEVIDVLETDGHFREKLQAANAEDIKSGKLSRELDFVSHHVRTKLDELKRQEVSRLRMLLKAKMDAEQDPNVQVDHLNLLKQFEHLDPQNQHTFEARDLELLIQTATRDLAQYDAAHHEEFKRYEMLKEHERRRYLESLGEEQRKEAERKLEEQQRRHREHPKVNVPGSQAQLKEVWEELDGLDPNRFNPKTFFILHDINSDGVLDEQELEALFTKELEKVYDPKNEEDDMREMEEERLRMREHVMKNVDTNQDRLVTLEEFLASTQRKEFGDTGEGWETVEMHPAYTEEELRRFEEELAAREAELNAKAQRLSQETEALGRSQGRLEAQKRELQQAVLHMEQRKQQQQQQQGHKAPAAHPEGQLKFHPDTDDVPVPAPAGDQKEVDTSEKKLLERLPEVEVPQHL
The experiment can be described thus: inferred from TEM of Amylin fibrillization with Ca2+ free NUCB1 added 1:1 at t=0, 2, 7 and 15 min. The source says: Aggregation of Amylin involves an initial lag phase, which is associated with the formation of a nucleus. This nucleation phase is followed by the growth phase where monomers/oligomers add on to the nucleus converting the protofibrillar species into mature fibrils (Merlini and Bellotti, N. Engl. J. Med. 349, 583-596, 2003). Inhibitors of amyloidogenesis, known to date, either prolong the lag phase or slow down the growth phase. […] In the second reaction, Amylin oligomerization was allowed to proceed for 2 min into the reaction after which equimolar amount of NUCB1 was added. […] In the third reaction, NUCB1 was added after the nucleation phase of Amylin aggregation was complete (t=7 min). […] In the fourth experiment, the fibrillization reaction was allowed to proceed to the growth phase and NUCB1 was added during the elongation phase (t=1 5 min). […] This summarizes and supports the observation that Ca2+ free NUCB1 can inhibit the aggregation of Amylin at any stage during the fibrillization reaction.

Positions of bridges follow the written chain, without caps; N, C: chain ends. No end group written: not given here.

B1: Wild type human IAPP (Amylin) (peptide, UniProt P10997 34-70, looked up)
peptide: KCNTATCATQRLANFLVHSSNNFGAILSSTNVGSNTY-NH2
modifications: disulfide 2-7 (inferred)
notes: mature; Present in the assays as monomers, oligomers, protofibrils or mature fibrils, depending on the time of addition; also called hIAPP; Amylin peptide
As to B1, the binding result was “binds”.
